Measured values published in PMC11127761, “Development of a Neuropeptide Y-Sensitive Implantable Microelectrode for Continuous Measurements”.

Biological target: Neuropeptide Y (NPY) (UniProt P01303 29-64)
Assay: electrochemical aptasensor (SWV, steady state); 1-1000 pg/mL; best NPY response of the three aptamers; aCSF pH 7.4 (composition by citation); SWV -0.4 to 0.0 V, 30 Hz; IPA 500 Hz in flow cell; assay temperature not stated
Details: protein: commercial; label: 3' methylene blue; immobilized on Pt via 5' thiol

B1: Aptamer 4.31 (ssDNA)
DNA: AGCAGCACAGAGGTCAGATGCAAACCACAGCCTGAGTGGTTAGCGTATGTCATTTACGGACCTATGCGTGCTACCGTGAA
modifications: 5' thiol C6 (disulfide reduced), 3' amino linker
Does B1 bind?
Result: binds
